Source: patent US20180155413A1 (AstraZeneca / MedImmune, published 2018)

B1: GL20/39 BiS4 100/44 (bispecific antibody)
light: DIQMTQSPSSLSASVGDRVTITCRTSQSLSSYTHWYQQKPGKAPKLLIYAASSRGSGVPSRFSGSGSGTDFTLTISSLQPEDFATYYCQQSRTFGQGTKVEIKRTVAAPSVFIFPPSDEQLKSGTASVVCLLNNFYPREAKVQWKVDNALQSGNSQESVTEQDSKDSTYSLSSTLTLSKADYEKHKVYACEVTHQGLSSPVTKSFNRGEC
heavy: not shown
B2: GL20 IgG (antibody, V domains shown)
VH: QVQLQQSGPGLVKPSQTLSLTCAISGDSVSSYNAVWNWIRQSPSRGLEWLGRTYYRSGWYNDYAESVKSRITINPDTSKNQFSLQLNSVTPEDTAVYYCARSGHITVFGVNVDAFDMWGQGTMVTVSS
VL: DIQMTQSPSSLSASVGDRVTITCRTSQSLSSYTHWYQQKPGKAPKLLIYAASSRGSGVPSRFSGSGSGTDFTLTISSLQPEDFATYYCQQSRTFGQGTKVEIK

Key:
Assay in all cases: cell-based or functional assay
[1] = biological target: HA of ca B/Beijing/243/97 (victoria) (influenza B virus)
[2] = biological target: HA of B/Yamagata/16/88 (yamagata) (influenza B virus)
[3] = biological target: HA of ca B/Brisbane/60/2008 (victoria) (influenza B virus)
HA of B/Lee/40 = HA of B/Lee/40 (influenza B virus, UniProt P03460 16-584)
Chain of HA of B/Lee/40 (P03460 16-584 limits assumed): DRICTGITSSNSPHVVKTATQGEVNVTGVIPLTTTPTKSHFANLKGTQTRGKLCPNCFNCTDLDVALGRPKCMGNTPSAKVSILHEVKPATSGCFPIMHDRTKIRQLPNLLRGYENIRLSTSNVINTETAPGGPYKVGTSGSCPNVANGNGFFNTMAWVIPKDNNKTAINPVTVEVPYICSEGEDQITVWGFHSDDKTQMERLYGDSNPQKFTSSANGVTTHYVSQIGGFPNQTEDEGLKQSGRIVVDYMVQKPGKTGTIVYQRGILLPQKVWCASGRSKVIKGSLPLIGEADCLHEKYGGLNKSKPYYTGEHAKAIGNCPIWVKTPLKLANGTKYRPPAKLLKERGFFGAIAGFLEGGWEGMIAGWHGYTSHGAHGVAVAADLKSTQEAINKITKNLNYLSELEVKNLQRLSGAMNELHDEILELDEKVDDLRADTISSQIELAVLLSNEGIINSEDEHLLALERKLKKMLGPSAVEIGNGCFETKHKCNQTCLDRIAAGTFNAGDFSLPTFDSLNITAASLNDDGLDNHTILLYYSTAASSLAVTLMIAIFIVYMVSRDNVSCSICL

[4] = biological target: HA of ca B/Victoria/504/2000 (yamagata) (influenza B virus)
[5] = biological target: HA of B/Florida/4/2006 (yamagata) (influenza B virus)
[6] = biological target: HA of B/Malaysia/2506/2004 (victoria) (influenza B virus)
[7] = biological target: HA protein derived from A/South Dakota/6/2007 H1N1, on stably transfected MDCK cells (influenza A virus)
[8] = biological target: HA protein derived from A/Hong Kong/8/68 H3N2, on stably transfected MDCK cells (influenza A virus)

Binder | Hemagglutination Inhibition Titer [1] [nM] | Hemagglutination Inhibition Titer [2] [nM] | Hemagglutination Inhibition Titer [3] [nM] | Hemagglutination Inhibition Titer (HA of B/Lee/40) [nM] | Hemagglutination Inhibition Titer [4] [nM] | Hemagglutination Inhibition Titer [5] [nM] | Hemagglutination Inhibition Titer [6] [nM] | EC50 (read off the curve), ADCP % double positive [7] [nM] | EC50 (read off the curve), ADCP % double positive [8] [nM]
B1 | 91 | 122 | 244 | 61 | 61 | 61 | 244 | – | –
B2 | – | – | – | – | – | – | – | ~0.04 | ~0.04
